For two molecules, PKi and signal over background results are on record in US6562587 (ASTRA PHARMA, dated 2003).

Non-standard residues stand in square brackets, D forms with d. No end group written: not given here.

Assay [1] addresses delta opioid receptor naturally expressed by NG 108-15 cells (UniProt P32300). The assay is described as follows: Table 1, NG 108-15 column (method not described).
Assay [2] deals with T1, K56 receptor (mouse delta opioid receptor encoded by clone K56) (mouse, UniProt P32300 1-372).
T1 construct: Expressed transiently in Cos-1 cells from plasmid pCDM8-K56; 371 amino acids; also called K56 protein; Cos K56
The assay is described as follows: radioligand binding, 1 nM ^3H-DTLET on monolayer Cos-1 cells transfected with K56.

The molecule “cyclic [D-penicillamine^2, D-penicillamine^5]-enkephalin (peptide)” had a PKi in assay [1] of 8.3.

B1: Tyr-D-Thr-Gly-Phe-Leu-Thr (DTLET), labelled with tritium (peptide)
peptide: Y[dT]GFLT
modifications: not fully specified
notes: Synthetic delta-selective enkephalin analogue used as the radioligand; also called ^3H-DTLET
In assay [2], B1 yielded a signal over background of 6 fold.
